Test results reported in the supplement of paper PMC10567573.

B1: BTBD10 (parent)
chain: FVYENAKEGARNIRTSERVTLIVD

Variants of: B1
Assay: protein stability index of a GFP-peptide fusion (GPS, HEK-293T) (PSI 1-6); higher = more stable
Settings: c terminus: a fixed tail appended
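Note: lentivirally expressed fusions sorted by FACS into six bins by GFP to DsRed ratio, PSI derived from sequencing read proportions per bin multiplied by bin number.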

In order of rising protein stability index:
1. FVYENAKEGARVIRTSERVTLIVD [N12V]  1.17
2. FVYENAKEGARLIRTSERVTLIVD [N12L]  1.34
3. FVYELAKEGARNIRTSERVTLIVD [N5L]  1.34
4. FVYENAKEYARNIRTSERVTLIVD [G9Y]  1.41
5. FVYENAKEGARHIRTSERVTLIVD [N12H]  1.5
6. FVYENAKEGARCIRTSERVTLIVD [N12C]  1.51
7. FVYESAKEGARNIRTSERVTLIVD [N5S]  1.54
8. FVYENAKEGARMIRTSERVTLIVD [N12M]  1.56
9. FVYENYKEGARNIRTSERVTLIVD [A6Y]  1.57
10. FVYENAKEGHRNIRTSERVTLIVD [A10H]  1.58
11. FVYENAKEGAMNIRTSERVTLIVD [R11M]  1.59
12. FVYENAKEGAYNIRTSERVTLIVD [R11Y]  1.59
13. FVYEIAKEGARNIRTSERVTLIVD [N5I]  1.61
14. FVYEMAKEGARNIRTSERVTLIVD [N5M]  1.61
15. FVYEYAKEGARNIRTSERVTLIVD [N5Y]  1.61
16. FVYENAKEGMRNIRTSERVTLIVD [A10M]  1.62
17. FVYEVAKEGARNIRTSERVTLIVD [N5V]  1.63
18. FVYENLKEGARNIRTSERVTLIVD [A6L]  1.69
19. FVYENAKEKARNIRTSERVTLIVD [G9K]  1.7
20. FVYENAKEGARQIRTSERVTLIVD [N12Q]  1.7
21. FVYENAKEHARNIRTSERVTLIVD [G9H]  1.72
22. FVYENAKEIARNIRTSERVTLIVD [G9I]  1.74
23. FVYENAKEVARNIRTSERVTLIVD [G9V]  1.77
24. FVYENSKEGARNIRTSERVTLIVD [A6S]  1.78
25. FVYENIKEGARNIRTSERVTLIVD [A6I]  1.79
26. FVYENAKESARNIRTSERVTLIVD [G9S]  1.8
27. FVYENFKEGARNIRTSERVTLIVD [A6F]  1.8
28. FVYENAKEGARAIRTSERVTLIVD [N12A]  1.82
29. FVYENCKEGARNIRTSERVTLIVD [A6C]  1.82
30. FVYENAKECARNIRTSERVTLIVD [G9C]  1.83
31. FVYENAKEGARIIRTSERVTLIVD [N12I]  1.84
32. FVYENRKEGARNIRTSERVTLIVD [A6R]  1.84
33. FVYENAKEGCRNIRTSERVTLIVD [A10C]  1.84
34. FVYENAKEAARNIRTSERVTLIVD [G9A]  1.85
35. FVYENVKEGARNIRTSERVTLIVD [A6V]  1.85
36. FVYENAKEGYRNIRTSERVTLIVD [A10Y]  1.86
37. FVYENAKEGLRNIRTSERVTLIVD [A10L]  1.89
38. FVYEFAKEGARNIRTSERVTLIVD [N5F]  1.9
39. FVYENAKEGARDIRTSERVTLIVD [N12D]  1.93
40. FVYENAKEGARTIRTSERVTLIVD [N12T]  1.93
41. FVYEKAKEGARNIRTSERVTLIVD [N5K]  1.94
42. FVYERAKEGARNIRTSERVTLIVD [N5R]  1.95
43. FVYENAKEGARRIRTSERVTLIVD [N12R]  1.96
44. FVYENQKEGARNIRTSERVTLIVD [A6Q]  1.96
45. FVYENAKEGARSIRTSERVTLIVD [N12S]  1.97
46. FVYENGKEGARNIRTSERVTLIVD [A6G]  1.97
47. FVYENAKEGARGIRTSERVTLIVD [N12G]  1.98
48. FVYENAKEGIRNIRTSERVTLIVD [A10I]  2
49. FVYENAKEGSRNIRTSERVTLIVD [A10S]  2.01
50. FVYENAKEPARNIRTSERVTLIVD [G9P]  2.02
51. FVYENAKEGTRNIRTSERVTLIVD [A10T]  2.03
52. FVYENWKEGARNIRTSERVTLIVD [A6W]  2.05
53. FVYENAKEGQRNIRTSERVTLIVD [A10Q]  2.05
54. FVYENAKEGACNIRTSERVTLIVD [R11C]  2.07
55. FVYENAKEGAREIRTSERVTLIVD [N12E]  2.08
56. FVYENMKEGARNIRTSERVTLIVD [A6M]  2.08
57. FVYENAKEGGRNIRTSERVTLIVD [A10G]  2.08
58. FVYENAKETARNIRTSERVTLIVD [G9T]  2.09
59. FVYENAKEQARNIRTSERVTLIVD [G9Q]  2.09
60. FVYENHKEGARNIRTSERVTLIVD [A6H]  2.1
61. FVYENAKEGVRNIRTSERVTLIVD [A10V]  2.1
62. FVYENAKELARNIRTSERVTLIVD [G9L]  2.12
63. FVYENKKEGARNIRTSERVTLIVD [A6K]  2.13
64. FVYENAKENARNIRTSERVTLIVD [G9N]  2.15
65. FVYENAKEGNRNIRTSERVTLIVD [A10N]  2.16
66. FVYENAKERARNIRTSERVTLIVD [G9R]  2.17
67. FVYENAKEGFRNIRTSERVTLIVD [A10F]  2.18
68. FVYENAKEGARKIRTSERVTLIVD [N12K]  2.19
69. FVYEHAKEGARNIRTSERVTLIVD [N5H]  2.19
70. FVYENAKEGRRNIRTSERVTLIVD [A10R]  2.2
71. FVYETAKEGARNIRTSERVTLIVD [N5T]  2.25
72. FVYENAKEGDRNIRTSERVTLIVD [A10D]  2.26
73. FVYENAKEGAVNIRTSERVTLIVD [R11V]  2.3
74. FVYENAKEFARNIRTSERVTLIVD [G9F]  2.31
75. FVYENAKEGWRNIRTSERVTLIVD [A10W]  2.32
76. FVYENAKEGKRNIRTSERVTLIVD [A10K]  2.32
77. FVYENAKEEARNIRTSERVTLIVD [G9E]  2.33
78. FVYENPKEGARNIRTSERVTLIVD [A6P]  2.41
79. FVYENNKEGARNIRTSERVTLIVD [A6N]  2.43
80. FVYENAKEMARNIRTSERVTLIVD [G9M]  2.47
81. FVYEGAKEGARNIRTSERVTLIVD [N5G]  2.47
82. FVYENAKEDARNIRTSERVTLIVD [G9D]  2.49
83. FVYENTKEGARNIRTSERVTLIVD [A6T]  2.5
84. FVYEPAKEGARNIRTSERVTLIVD [N5P]  2.52
85. FVYENAKEGARYIRTSERVTLIVD [N12Y]  2.61
86. FVYEQAKEGARNIRTSERVTLIVD [N5Q]  2.64
87. FVYENAKEGARPIRTSERVTLIVD [N12P]  2.65
88. FVYENAKEGARFIRTSERVTLIVD [N12F]  2.65
89. FVYENDKEGARNIRTSERVTLIVD [A6D]  2.67
90. FVYENAKEGPRNIRTSERVTLIVD [A10P]  2.7
91. FVYENAKEGERNIRTSERVTLIVD [A10E]  2.79
92. FVYENEKEGARNIRTSERVTLIVD [A6E]  2.8
93. FVYENAKEGARWIRTSERVTLIVD [N12W]  3.12
94. FVYEWAKEGARNIRTSERVTLIVD [N5W]  3.23
